The test addresses lectin-like oxidized LDL receptor 1 (LOX1) on bEnd.3 cells (mouse (endogenous in bEnd.3)) (UniProt Q9EQ09).
Chain of UniProt Q9EQ09 (Q9EQ09 whole entry): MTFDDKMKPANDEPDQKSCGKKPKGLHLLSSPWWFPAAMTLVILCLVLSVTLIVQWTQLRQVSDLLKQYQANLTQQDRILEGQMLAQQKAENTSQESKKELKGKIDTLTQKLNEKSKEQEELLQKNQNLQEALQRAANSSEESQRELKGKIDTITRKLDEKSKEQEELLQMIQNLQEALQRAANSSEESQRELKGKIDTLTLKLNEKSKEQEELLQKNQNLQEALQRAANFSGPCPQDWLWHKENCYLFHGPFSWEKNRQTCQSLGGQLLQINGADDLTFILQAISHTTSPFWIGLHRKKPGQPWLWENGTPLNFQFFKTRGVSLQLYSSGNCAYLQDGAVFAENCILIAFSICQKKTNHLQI

On to “Acrolein-modified apolipoprotein E3 (acro-apoE3) (from UniProt P02649 19-317) (natural protein)”, for which the decrease in uptake of DiI-labeled acro-apoE3/rHDL (3 µg/mL) by bEnd.3 cells pre-treated with anti-LOX1 antibody was 80 % decrease.

For the origin of these results see publication PMC6769588.
